How the values were obtained:
N1 [1] = test: ELISA on N1 NA
N1 [2] = test: Bio-Layer Interferometry (BLI); printed as kdis
N1 [3] = test: Bio-Layer Interferometry (BLI)
[4] = target: N6 neuraminidase from A/swine/Ontario/01911/1/99 (Influenza A virus …); test: flow cytometry, NA transiently expressed on Expi-CHO cells
[5] = target: T1, N2 neuraminidase from A/Washington/01/2007 (Influenza A virus A/Washington/01/2007); test: as above
T1 construct: whole, on cells

[6] = target: N9 neuraminidase from A/Anhui/1/2013 (Influenza A virus A/Anhui/1/2013 (H7N9)); test: as above
[7] = target: N8 A/HARBOR SEAL/NEW …/179629/2011 (Influenza A virus); test: as above
[8] = target: T2, N2 neuraminidase from A/Leningrad/134/17/57 (Influenza A virus A/Leningrad/134/17/57, UniProt Q67214 1-469); test: as above
[9] = target: IBV neuraminidase from B/Lee/10/1940 (Ancestral) (Influenza B virus B/Lee/10/1940, UniProt P03474 1-466); test: as above
[10] = target: T2, N2 neuraminidase from …; test: flow cytometry, NA on cells

B1: FNI3 (antibody, V domains shown)
VH: QVQLVQSGAEVKRPGSSVKVSCKASGATFSNNVIAWVRQAPGQGLEWMGGIHPISATATYAQKFQGRVAIAADELTSTAYMELNGLRSEDSAVYYCARAGSDYFNRDLGWENYYFDSWGQGTLVTVSS
VL: EILMTQSPATLSVSPGERATLSCRASQDVSGNLAWYQQRPGQAPRLLIYGASTRATGVPARFTGAGSGTEFTLTISSLQSEDFALYYCQHYNNWPPWTFGQGTKVEIK
EC50 (read off the curve) (N1 [1]): ~0.007 µg/mL
koff (N1 [2]): < 1e-07 s⁻¹
Kd (N1 [3]): < 1 pM
kon (N1 [3]): 39500 M⁻¹ s⁻¹
lowest concentration at which binding was observed (EC50 scale class) [4]: 0.4 µg/mL
lowest concentration at which binding was observed (EC50 scale class) [5]: 10 µg/mL
lowest concentration at which binding was observed (EC50 scale class) [6]: 0.4 µg/mL
lowest concentration at which binding was observed (EC50 scale class) [7]: 50 µg/mL
lowest concentration at which binding was observed (EC50 scale class) [8]: 0.4 µg/mL
lowest concentration at which binding was observed (EC50 scale class) [9]: 0.4 µg/mL

B2: FNI9 (antibody, V domains shown)
VH: QVHLVQSGAEVKEPGSSVTVSCKASGGSFNNQAISWVRQAPGQGLEWMGGIFPISGTPTSAQRFQGRVTFTADESTTTVYMDLSSLRSDDTAVYYCARAGSDYFNRDLGWENYYFASWGQGTLVTVSS
VL: EIVMTQSPATLSLSSGERATLSCRASRSVSSNLAWYQQKPGQAPRLLIYDASTRATGFSARFAGSGSGTEFTLTISSLQSEDSAIYYCQQYNNWPPWTFGQGTKVEIK
lowest concentration at which binding was observed (EC50 scale class) [8]: 0.4 µg/mL
lowest concentration at which binding was observed (EC50 scale class) [9]: 0.4 µg/mL

B3: v5.7 (antibody, V domains shown)
VH: QVHLVQSGAEVKEPGSSVTVSCKASGGSFNKQAISWVRQAPGQGLEWMGGIFPISGTPTSAQRFQGRVTFTADESTTTVYMDLSSLRSDDTAVYYCARAGSDYFNRDLGWENYYFASWGQGTLVTVSS
VL: EIVMTQSPATLSLSSGERATLSCRASRSVSSNLAWYQQKPGQAPRLLIYDASTRATGFSARFAGSGSGTEFTLTISSLQSEDSAIYYCQQYNIWPPWTFGQGTKVEIK
binding result [10]: binds

B4: v11.1 (antibody, V domains shown)
VH: QVHLVQSGAEVKEPGSSVTVSCKASGGSFNNQAISWVRQAPGQGLEWMGGIFPISGTATYAQRFQGRVTITADESTTTVYMDLSSLRSDDTAVYYCARAGSDYFNRDLGWENYYFASWGQGTLVTVSS
VL: EIVMTQSPATLSLSSGERATLSCRASRSVSSNLAWYQQKPGQAPRLLIYDASTRATGFSARFAGSGSGTEFTLTISSLQSEDSAIYYCQQYNNWPPWTFGQGTKVEIK
binding result [10]: binds

B5: v11.7 (antibody, V domains shown)
VH: QVHLVQSGAEVKEPGSSVTVSCKASGGSFNNQAISWVRQAPGQGLEWMGGIFPISGTATYAQRFQGRVTITADESTTTVYMDLSSLRSDDTAVYYCARAGSDYFNRDLGWENYYFASWGQGTLVTVSS
VL: EIVMTQSPATLSLSSGERATLSCRASRSVSSNLAWYQQKPGQAPRLLIYDASTRATGFSARFAGSGSGTEFTLTISSLQSEDSAIYYCQQYNIWPPWTFGQGTKVEIK
binding result [10]: binds

B6: v12.7 (antibody, V domains shown)
VH: QVHLVQSGAEVKEPGSSVTVSCKASGGSFNNQAISWVRQAPGQGLEWMGGIFPISGTANYAQRFQGRVTITADESTTTVYMDLSSLRSDDTAVYYCARAGSDYFNRDLGWENYYFASWGQGTLVTVSS
VL: EIVMTQSPATLSLSSGERATLSCRASRSVSSNLAWYQQKPGQAPRLLIYDASTRATGFSARFAGSGSGTEFTLTISSLQSEDSAIYYCQQYNIWPPWTFGQGTKVEIK
binding result [10]: binds

B7: v9.7 (antibody, V domains shown)
VH: QVHLVQSGAEVKEPGSSVTVSCKASGGSFNNQAISWVRQAPGQGLEWMGGIFPISGTATSAQRFQGRVTITADESTTTVYMDLSSLRSDDTAVYYCARAGSDYFNRDLGWENYYFASWGQGTLVTVSS
VL: EIVMTQSPATLSLSSGERATLSCRASRSVSSNLAWYQQKPGQAPRLLIYDASTRATGFSARFAGSGSGTEFTLTISSLQSEDSAIYYCQQYNIWPPWTFGQGTKVEIK
binding result [10]: binds

B8: FNI9-v8.1 (antibody, V domains shown)
VH: QVHLVQSGAEVKEPGSSVTVSCKASGGTFNNQAISWVRQAPGQGLEWMGGIFPISGTPTSAQRFQGRVTFTADESTTTVYMDLSSLRSDDTAVYYCARAGSDYFNRDLGWENYYFASWGQGTLVTVSS
VL: EIVMTQSPATLSLSSGERATLSCRASRSVSSNLAWYQQKPGQAPRLLIYDASTRATGFSARFAGSGSGTEFTLTISSLQSEDSAIYYCQQYNNWPPWTFGQGTKVEIK
binding result [10]: binds

B9: v12.1 (antibody, V domains shown)
VH: QVHLVQSGAEVKEPGSSVTVSCKASGGSFNNQAISWVRQAPGQGLEWMGGIFPISGTANYAQRFQGRVTITADESTTTVYMDLSSLRSDDTAVYYCARAGSDYFNRDLGWENYYFASWGQGTLVTVSS
VL: EIVMTQSPATLSLSSGERATLSCRASRSVSSNLAWYQQKPGQAPRLLIYDASTRATGFSARFAGSGSGTEFTLTISSLQSEDSAIYYCQQYNNWPPWTFGQGTKVEIK
binding result [10]: binds

B10: v9.1 (antibody, V domains shown)
VH: QVHLVQSGAEVKEPGSSVTVSCKASGGSFNNQAISWVRQAPGQGLEWMGGIFPISGTATSAQRFQGRVTITADESTTTVYMDLSSLRSDDTAVYYCARAGSDYFNRDLGWENYYFASWGQGTLVTVSS
VL: EIVMTQSPATLSLSSGERATLSCRASRSVSSNLAWYQQKPGQAPRLLIYDASTRATGFSARFAGSGSGTEFTLTISSLQSEDSAIYYCQQYNNWPPWTFGQGTKVEIK
binding result [10]: binds

B11: v8.7 (antibody, V domains shown)
VH: QVHLVQSGAEVKEPGSSVTVSCKASGGTFNNQAISWVRQAPGQGLEWMGGIFPISGTPTSAQRFQGRVTFTADESTTTVYMDLSSLRSDDTAVYYCARAGSDYFNRDLGWENYYFASWGQGTLVTVSS
VL: EIVMTQSPATLSLSSGERATLSCRASRSVSSNLAWYQQKPGQAPRLLIYDASTRATGFSARFAGSGSGTEFTLTISSLQSEDSAIYYCQQYNIWPPWTFGQGTKVEIK
binding result [10]: binds

B12: v4.7 (antibody, V domains shown)
VH: QVHLVQSGAEVKEPGSSVTVSCKASGGSFSNQAISWVRQAPGQGLEWMGGIFPISGTPTSAQRFQGRVTFTADESTTTVYMDLSSLRSDDTAVYYCARAGSDYFNRDLGWENYYFASWGQGTLVTVSS
VL: EIVMTQSPATLSLSSGERATLSCRASRSVSSNLAWYQQKPGQAPRLLIYDASTRATGFSARFAGSGSGTEFTLTISSLQSEDSAIYYCQQYNIWPPWTFGQGTKVEIK
binding result [10]: binds

B13: v7.1 (antibody, V domains shown)
VH: QVHLVQSGAEVKEPGSSVTVSCKASGGSFNNQAISWVRQAPGQGLEWMGGIFPISGTPTSAQRFQGRVTFTADESTTTVYMDLSSLRSDDTAVYYCARAGSDYFNRDLGWEQYYFASWGQGTLVTVSS
VL: EIVMTQSPATLSLSSGERATLSCRASRSVSSNLAWYQQKPGQAPRLLIYDASTRATGFSARFAGSGSGTEFTLTISSLQSEDSAIYYCQQYNNWPPWTFGQGTKVEIK
binding result [10]: binds

B14: v6.1 (antibody, V domains shown)
VH: QVHLVQSGAEVKEPGSSVTVSCKASGGSFNNQAISWVRQAPGQGLEWMGGIFPISGTPTSAQRFQGRVTFTADESTTTVYMDLSSLRSDDTAVYYCARAGSEYFNRDLGWENYYFASWGQGTLVTVSS
VL: EIVMTQSPATLSLSSGERATLSCRASRSVSSNLAWYQQKPGQAPRLLIYDASTRATGFSARFAGSGSGTEFTLTISSLQSEDSAIYYCQQYNNWPPWTFGQGTKVEIK
binding result [10]: binds

B15: v5.1 (antibody, V domains shown)
VH: QVHLVQSGAEVKEPGSSVTVSCKASGGSFNKQAISWVRQAPGQGLEWMGGIFPISGTPTSAQRFQGRVTFTADESTTTVYMDLSSLRSDDTAVYYCARAGSDYFNRDLGWENYYFASWGQGTLVTVSS
VL: EIVMTQSPATLSLSSGERATLSCRASRSVSSNLAWYQQKPGQAPRLLIYDASTRATGFSARFAGSGSGTEFTLTISSLQSEDSAIYYCQQYNNWPPWTFGQGTKVEIK
binding result [10]: binds

B16: v4.1 (antibody, V domains shown)
VH: QVHLVQSGAEVKEPGSSVTVSCKASGGSFSNQAISWVRQAPGQGLEWMGGIFPISGTPTSAQRFQGRVTFTADESTTTVYMDLSSLRSDDTAVYYCARAGSDYFNRDLGWENYYFASWGQGTLVTVSS
VL: EIVMTQSPATLSLSSGERATLSCRASRSVSSNLAWYQQKPGQAPRLLIYDASTRATGFSARFAGSGSGTEFTLTISSLQSEDSAIYYCQQYNNWPPWTFGQGTKVEIK
binding result [10]: binds

B17: v6.7 (antibody, V domains shown)
VH: QVHLVQSGAEVKEPGSSVTVSCKASGGSFNNQAISWVRQAPGQGLEWMGGIFPISGTPTSAQRFQGRVTFTADESTTTVYMDLSSLRSDDTAVYYCARAGSEYFNRDLGWENYYFASWGQGTLVTVSS
VL: EIVMTQSPATLSLSSGERATLSCRASRSVSSNLAWYQQKPGQAPRLLIYDASTRATGFSARFAGSGSGTEFTLTISSLQSEDSAIYYCQQYNIWPPWTFGQGTKVEIK
binding result [10]: binds

B18: v7.7 (antibody, V domains shown)
VH: QVHLVQSGAEVKEPGSSVTVSCKASGGSFNNQAISWVRQAPGQGLEWMGGIFPISGTPTSAQRFQGRVTFTADESTTTVYMDLSSLRSDDTAVYYCARAGSDYFNRDLGWEQYYFASWGQGTLVTVSS
VL: EIVMTQSPATLSLSSGERATLSCRASRSVSSNLAWYQQKPGQAPRLLIYDASTRATGFSARFAGSGSGTEFTLTISSLQSEDSAIYYCQQYNIWPPWTFGQGTKVEIK
binding result [10]: binds

From patent US20260184814A1 (HUMABS BIOMED, published 2026)
